# Source: patent publication US20100076062
# B1: recombinant caspase 10 (Calbiochem) (protein)
# chain: VKTFLEALPQESWQNKHAGSNGNRATNGAPSLVSRGMQGASANTLNSETSTKRAAVYRMNRNHRGLCVIVNNHSFTSLKDRQGTHKDAEILSHVFQWLGFTVHIHNNVTKVEMEMVLQKQKCNPAHADGDCFVFCILTHGRFGAVYSSDEALIPIREIMSHFTALQCPRLAEKPKLFFIQACQGEEIQPSVSIEADALNPEQAPTSLQDSIPAEADFLLGLATVPGYVSFRHVEEGSWYIQSLCNHLKKLVPRMLKFLEKTMEIRGRKRTVWGAKQISATSLPTAISAQTPRPPMRRWSSVS
# B2: recombinant caspase 1 (Calbiochem) (protein)
# chain: NPAMPTSSGSEGNVKLCSLEEAQRIWKQKSAEIYPIMDKSSRTRLALIICNEEFDSIPRRTGAEVDITGMTMLLQNLGYSVDVKKNLTASDMTTELEAFAHRPEHKTSDSTFLVFMSHGIREGICGKKHSEQVPDILQLNAIFNMLNTKNCPSLKDKPKVIIIQACRGDSPGVVWFKDSVGVSGNLSLPTTEEFEDDAIKKAHIEKDFIAFCSSTPDNVSWRHPTMGSVFIGRLIEHMQEYACSCDVEEIFRKVRFSFEQPDGRAQMPTTERVTLTRCFYLFPGH
# B3: recombinant caspase 9 (Calbiochem) (protein)
# chain: MDEADRRLLRRCRLRLVEELQVDQLWDALLSRELFRPHMIEDIQRAGSGSRRDQARQLIIDLETRGSQALPLFISCLEDTGQDMLASFLRTNRQAAKLSKPTLENLTPVVLRPEIRKPEVLRPETPRPVDIGSGGFGDVGALESLRGNADLAYILSMEPCGHCLIINNVNFCRESGLRTRTGSNIDCEKLRRRFSSLHFMVEVKGDLTAKKMVLALLELAQQDHGALDCCVVVILSHGCQASHLQFPGAVYGTDGCPVSVEKIVNIFNGTSCPSLGGKPKLFFIQACGGEQKDHGFEVASTSPEDESPGSNPEPDATPFQEGLRTFDQLDAISSLPTPSDIFVSYSTFPGFVSWRDPKSGSWYVETLDDIFEQWAHSEDLQSLLLRVANAVSVKGIYKQMPGCFNFLRKKLFFKTS
# B4: recombinant caspase 7 (Calbiochem) (protein)
# chain: AKPDRSSFVPSLFSKKKKNVTMRSIKTTRDRVPTYQYNMNFEKLGKCIIINNKNFDKVTGMGVRNGTDKDAEALFKCFRSLGFDVIVYNDCSCAKMQDLLKKASEEDHTNAACFACILLSHGEENVIYGKDGVTPIKDLTAHFRGDRCKTLLEKPKLFFIQACRGTELDDGIQADSGPINDTDANPRYKIPVEADFLFAYSTVPGYYSWRSPGRGSWFVQALCSILEEHGKDLEIMQILTRVNDRVARHFESQSDDPHFHEKKQIPCVVSMLTKELYFSQ
# B5: recombinant caspase 2 (Calbiochem) (protein)
# chain: GPVCLQVKPCTPEFYQTHFQLAYRLQSRPRGLALVLSNVHFTGEKELEFRSGGDVDHSTLVTLFKLLGYDVHVLCDQTAQEMQEKLQNFAQLPAHRVTDSCIVALLSHGVEGAIYGVDGKLLQLQEVFQLFDNANCPSLQNKPKMFFIQACRGDETDRGVDQQDGKNHAGSPGCEESDAGKEKLPKMRLPTRSDMICGYACLKGTAAMRNTKRGSWYIEALAQVFSERACDMHVADMLVKVNALIKDREGYAPGTEFHRCKEMSEYCSTLCRHLYLFPGHPPT
# B6: recombinant caspase 3 (Calbiochem) (protein)
# chain: SGISLDNSYKMDYPEMGLCIIINNKNFHKSTGMTSRSGTDVDAANLRETFRNLKYEVRNKNDLTREEIVELMRDVSKEDHSKRSSFVCVLLSHGEEGIIFGTNGPVDLKKITNFFRGDRCRSLTGKPKLFIIQACRGTELDCGIETDSGVDDDMACHKIPVEADFLYAYSTAPGYYSWRNSKDGSWFIQSLCAMLKQYADKLEFMHILTRVNRKVATEFESFSFDATFHAKKQIPCIVSMLTKELYFYH
# B7: recombinant caspase 8 (Calbiochem) (protein)
# chain: SESQTLDKVYQMKSKPRGYCLIINNHNFAKAREKVPKLHSIRDRNGTHLDAGALTTTFEELHFEIKPHDDCTVEQIYEILKIYQLMDHSNMDCFICCILSHGDKGIIYGTDGQEAPIYELTSQFTGLKCPSLAGKPKVFFIQACQGDNYQKGIPVETDSEEQPYLEMDLSSPQTRYIPDEADFLLGMATVNNCVSYRNPAEGTWYIQSLCQSLRERCPRGDDILTILTEVNYEVSNKDDKKNMGKQMPQPTFTLRKKLVFPSD
# B8: recombinant caspase 6 (Calbiochem) (protein)
# chain: AFYKREMFDPAEKYKMDHRRRGIALIFNHERFFWHLTLPERRGTCADRDNLTRRFSDLGFEVKCFNDLKAEELLLKIHEVSTVSHADADCFVCVFLSHGEGNHIYAYDAKIEIQTLTGLFKGDKCHSLVGKPKIFIIQACRGNQHDVPVIPLDVVDNQTEKLDTNITEVDAASVYTLPAGADFLMCYSVAEGYYSHRETVNGSWYIQDLCEMLGKYGSSLEFTELLTLVNRKVSQRRVDFCKDPSAIGKKQVPCFASMLTKKLHFFPKSN
# Columns and labels:
# [1] = target: HA-tagged human eIF5A1D6E, in vitro translated from pHM6-HA-A1(D6E)
# [2] = target: HA-tagged human eIF5A1D6E/K50R, in vitro translated from pHM6-HA-A1(D6E/K50R)
# [3] = target: HA-tagged human eIF5A1 (wild type), in vitro translated from pHM6-HA-A1
Protein,"in vitro cleavage of the biotin-labelled translation product by recombinant caspase (SDS-PAGE, Streptavidin-HRP) [1]","in vitro cleavage of the biotin-labelled translation product by recombinant caspase (SDS-PAGE, Streptavidin-HRP) [2]","in vitro cleavage of the biotin-labelled translation product by recombinant caspase (SDS-PAGE, Streptavidin-HRP) [3]"
B1,are not efficiently cleaved by caspases 9 and 10,are not efficiently cleaved by caspases 9 and 10,"The wild-type eIF5A1 is cleaved by caspases 2, 3, 6, 7, 8, 9, and 10"
B2,–,–,"The wild-type eIF5A1 is cleaved by caspases 2, 3, 6, 7, 8, 9, and 10 but not by caspase 1"
B3,are not efficiently cleaved by caspases 9 and 10,are not efficiently cleaved by caspases 9 and 10,"The wild-type eIF5A1 is cleaved by caspases 2, 3, 6, 7, 8, 9, and 10"
B4,–,–,"The wild-type eIF5A1 is cleaved by caspases 2, 3, 6, 7, 8, 9, and 10"
B5,–,–,"The wild-type eIF5A1 is cleaved by caspases 2, 3, 6, 7, 8, 9, and 10"
B6,–,–,"The wild-type eIF5A1 is cleaved by caspases 2, 3, 6, 7, 8, 9, and 10"
B7,"HA-tagged eIF5A1D6E and eIF5A1D6E/K50R are effectively cleaved in vitro by caspases 3, 7 and 8","HA-tagged eIF5A1D6E and eIF5A1D6E/K50R are effectively cleaved in vitro by caspases 3, 7 and 8","The wild-type eIF5A1 is cleaved by caspases 2, 3, 6, 7, 8, 9, and 10"
B8,–,–,"The wild-type eIF5A1 is cleaved by caspases 2, 3, 6, 7, 8, 9, and 10"
